First the molecules themselves.
B1: RUPA-67 (antibody, V domains shown)
VH: QVQLLESGPGLVKPSETLSLTCTVSGASISTSYWSWIRQPAGKGLEWIGRFHISESSNYNPSLKSRLTLSADTSKNQVSLRLSSVTAADTAVYYCARDVSPEECVSTKCYRRPGYMDVWGKGTSVTVSS
VL: DIQMTQSPSSLSASVGDRVTITCRASQSIRNYLNWYLQKPGKAPKLLIFGASSLQSGVPSRFSGSGSGTDFTLTISSLLPEDFATYYCQQSYTTPRTFGQGTKVEIK
notes: human IgG1; source: recombinant human IgG1, 293T (Protein A purified) or GenScript
B2: RUPA-51 (antibody, V domains shown)
VH: QVQLVQPGAEVKKPGASVKVSCKASGYIFSTYGISWVRQAPGQGLEWMGWTSSYSDDTNYAQKFQDRVTMTTDTSTSTAYMELRSLRSDDTAVYYCARGGDRGDGPRFYYYGLDVWGQGTTVTVSS
VL: EIVLTQSPGTLSLSPGERATLSCRASQSLYNSYLAWYQQKPGQAPRLLIYGASSRATGIPGRFSGSGSGTDFSLTISRLEPEDFAVYYCSLYGRSSWTFGQGTKVEIK
notes: as for B1
B3: RUPA-48 (antibody, V domains shown)
VH: EVQLVESGGGLVQPGRSLRLSCAASGFSFDDHAMHWVRQAPGKGLEWVSGISWNSGNIGYADSVKGRFTISRDNAKNSLYLQMNSLRPEDTALYHCAKDGGYCSGIRCYHLRGMDVWGQGTTVTVSS
VL: EIVLTQSPATLSLSPGERATLSCRASQSVTNYLAWYQQKPGQAPRLLIYDASNRATGIPARFSGSGSGTDFTLTISSLEPEDFGVYYCQQRSSWPPYTFGQGTKLEIK
notes: as for B1
B4: RUPA-156 (antibody, V domains shown)
VH: EVQLVESGGGLVQPGGSLRLSCVVSGFTFSRYSMYWVRQAPGKGPEWVSYIDSTGTTIYYADSVKGRFTISRDNAKSSLSLQMSSLRDDDRGVYYCARDGRKDSGSFLDHWGQGTLVTVSS
VL: DIQMTQSPSSLSASVGDRVTITCRASQSISEWLAWYQQKPGKAPRLLIYQASSLQSGVPSRFSGSGSGTEFTLTISSLQSDDFATYYCQQFDTYWTFGQGTKVEIK
notes: as for B1
B5: RUPA-130 (antibody, V domains shown)
VH: EVQLVESGGGLVKPGGSLRLSCEASGFTFRNAWMSWVRQAPGKGLEWVGRIKSYIDGGTADYAAPVKGRFSISRDDSKNTLFVQMNSLKTEDTAVYYCTTDSWAGEVGNYYFDNWGQGTLVTVSS
VL: QSALTQPASVSGSPGQSITISCTGTSSDVGSYNFVSWYQQHPGKAPKLMIYQVTWRPSGVSNRFSGSKSGNTASLTISGLQAEDEADYYCCSYSKSSTYVFGTGTKVSVL
notes: source: recombinant human IgG1, 293T (Protein A purified) or GenScript
B6: RUPA-116 (antibody, V domains shown)
VH: QVQLQQWGAGLLKPSETLSLTCVVYGGSFSDYYWSWVRQPPGKGLEWIGEVNHSGTTNYNPSLKSRLTISVDTSKNQISLRLNSLTAADTAVYYCARRSSGYYRQSRYTGWFDPWGRGTLVTVSS
VL: EIVMTQSPATLSVSPGERATLSCRASQSITSNLAWYQQKPGQAPRLLIYGASTRATGIPARFSGSGSGTEFTLTISSLQSDDFALYYCQQYNNWPGLTFGGGTKVEIK
notes: as for B1
B7: RUPA-155 (antibody, V domains shown)
VH: QVQLQQWGAGLLKPSETLSLTCAVEGDSLGDYYWSWIRQPPGKGLEWIGDINHSGTTNYIPSLKSRVTISVDSSRNQFSLRLNFVTAADTATYFCARRASGWYRQSRYTGWFDPWGQGTLVTVSS
VL: B6 VL with Q27H, T30N, L33V, S80T, D81E, L85V, T98S
notes: as for B1
B8: RUPA-119 (antibody, V domains shown)
VH: QVRLQQWGAGLLKPSETLSLTCGVSGGSFSDYYWTWIRQPPGKGLEWIGDISHSANTNYNESLQSRLTISVDTSKTQFSLRLASVTAADTALYFCARRSSGWYRQSRYTGWFDPWGQGTLVTVSS
VL: B6 VL with T56A, S77T, D81E, L85V, K104T
notes: as for B1
B9: RUPA-122 (antibody, V domains shown)
VH: QITLKESGPTLVKPTQTLMLTCSVSGFSLSNNGVAVGWVRQPPGKALEWLALIYWNDDSFYRPSLKSRLTINKDTSKNQVVLTMTNVAPVDTATYFCARTMKKITMIRGVPYEGGVQGFDPWGPGILVTVSS
VL: DIQMTQSPSSLSASVGDRVTITCRASQGIRDDLAWYQQKPGKAPERLIYAASSLQSGVPSRFSGSGYGTEFTLTISSLQPEDFATYYCQQYSGYFTFGGGTKVEIN
notes: as for B1
B10: RUPA-141 (antibody, V domains shown)
VH: EVQLVESGGGLVQPGESLRLSCAASGFTFNTYWMTWVRQAPGKGLEWVANINQDGSQKNYVDSVKGRFTVSRDNAKKSLFLQMNSLRAEDTAVYYCARDNGARYSGVWYDGWYDAFDIWGRGTVLTVSS
VL: AIQMTQSPSSLSASVGDRVTITCRASQGIKNDLGWYQQKTGKAPKLLIYAASSLQSGVPSRFSGSGSGTDFTLTISSLQPEDFATYYCLQDYNYPRTFGQGTKVEIK
notes: as for B5
B11: RUPA-164 (antibody, V domains shown)
VH: QVQLQESGPGLVKPSETLSLTCSVSGGSMTSFYWSWIRQPPGKGLEWIGYVYYNGTTNYKPSLKSRVTISVDMSKNQVSLKLSSVTAADTAVYYCARDRVVGSYYYGMDVWGQGTTVTVSS
VL: EIVLTQPPVSLSLSPGEGATLSCRASQSVSSSYLAWYQQKPGQAPRLLMYSASRRATGIPDRFTGSGSGTDFTLTISRLEPEDFALYYCQHYGGSPRETFGQGTKVEIK
notes: as for B1
B12: RUPA-114 (antibody, V domains shown)
VH: QVYLVQSGAEVKKPGASVKVSCKASGYDFTSYGIAWVRQAPGQGLEWMGWIGGYDDKTDYAQNLQGRFTVTTDTSTSTAYMELRSLKSDDTAVYYCARGGDRGDGLRFYYFALDVWGQGTTVTVSS
VL: B2 VL with E1D, T5A, R18G, L29I, Q39H, G61D, S73T, S90Q
notes: as for B1
B13: RUPA-158 (antibody, V domains shown)
VH: B2 VH with D89G, F108Y
VL: B2 VL with G9S
notes: as for B1
B14: RUPA-94 (antibody, V domains shown)
VH: QVQLRESGPGLVKPSETLSLTCSVSGGSITSSPYYWAWIRQPPGKGLEWIGSIYYSGGAYYNPSLKSRVTMSVDTSKNQFSLKVNSVTAADTAVYYCARRPNPGFWGGGYYFDYWGQGTLVTVSS
VL: QSALTQPASVSGSPGQSITISCTGSSSDVGSYNLVSWYQHHPGKAPKLMISEVSKRPSGVSDRFSGSKSGNTASLTISGLQAEDEADYYCCSYADSSTRNYVFGTGTKVTVL
notes: as for B1

From publication PMC9942873 (Immunity, 2023) come the findings set out here.

Substitutions are numbered along the chain they refer to.

T1 sequence (Q8I6T1 28-428): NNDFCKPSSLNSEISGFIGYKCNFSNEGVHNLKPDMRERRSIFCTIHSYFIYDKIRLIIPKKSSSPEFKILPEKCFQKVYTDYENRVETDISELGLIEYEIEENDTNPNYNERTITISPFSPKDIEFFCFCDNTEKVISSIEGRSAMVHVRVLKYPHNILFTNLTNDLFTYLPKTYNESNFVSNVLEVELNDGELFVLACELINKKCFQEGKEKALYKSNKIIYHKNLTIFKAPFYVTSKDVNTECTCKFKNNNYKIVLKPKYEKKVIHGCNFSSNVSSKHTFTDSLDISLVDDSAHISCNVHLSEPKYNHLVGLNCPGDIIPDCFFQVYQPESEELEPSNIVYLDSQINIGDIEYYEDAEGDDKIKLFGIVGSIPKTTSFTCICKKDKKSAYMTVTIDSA

The first assay has as its target T1, recombinant full-length Pfs48/45 (Plasmodium falciparum 3D7, UniProt Q8I6T1). Kind of assay: ELISA. The settings on record: both partners purified.
For the molecule B1, the binding result is given as “binds”.

As to B2, the binding result is reported as “binds”.

Consider B3, for which the binding result is given as “binds”.

For the next assay, the target named is T1, recombinant full-length Pfs48/45. Kind of assay: ELISA. The settings on record: both partners purified. This is another data set of the same source.
In the case of B4, the binding result is listed as “binds”.

In the case of B5, the binding result is on record as “binds”.

Turning to B6, the binding result was “binds”.

Turning to B7, the binding result is on record as “binds”.

As for B8, the binding result is recorded as “binds”.

On to B9, for which the binding result is recorded as “binds”.

Take B10: the binding result is given as “binds”.

As to B11, the binding result is “binds”.

For the molecule B12, the binding result is “binds”.

For B13, the binding result is on record as “binds”.

On to B14, for which the binding result is on record as “binds”.

The target in another assay is Pfs48/45 D1-2 (Plasmodium falciparum 3D7, UniProt Q8I6T1). Kind of assay: ELISA. The settings on record: both partners purified.
Pfs48/45 D1-2, sequence (Q8I6T1 28-289): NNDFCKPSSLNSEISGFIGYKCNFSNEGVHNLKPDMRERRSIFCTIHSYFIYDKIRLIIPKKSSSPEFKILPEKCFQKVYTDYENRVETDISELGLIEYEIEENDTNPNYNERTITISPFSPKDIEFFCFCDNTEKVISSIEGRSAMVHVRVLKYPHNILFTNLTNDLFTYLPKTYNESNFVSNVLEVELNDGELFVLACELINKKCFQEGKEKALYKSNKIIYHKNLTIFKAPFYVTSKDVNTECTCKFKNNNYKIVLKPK
For the molecule B4, the binding result is on record as “binds”.

With B5, the binding result is “binds”.

On to B6, for which the binding result is on record as “binds”.

Take B7: the binding result is listed as “binds”.

As for B8, the binding result is “binds”.

On to B9, for which the binding result was “binds”.

On to B11, for which the binding result was “binds”.

With B12, the binding result is on record as “binds”.

As to B14, the binding result was “binds”.
